Legend:
[1] = target: T1, CD79b on Ramos cells and on endogenous B cells of human PBMCs (human, UniProt P40259 29-229); assay: cell-based or functional assay
T1 sequence (looked up): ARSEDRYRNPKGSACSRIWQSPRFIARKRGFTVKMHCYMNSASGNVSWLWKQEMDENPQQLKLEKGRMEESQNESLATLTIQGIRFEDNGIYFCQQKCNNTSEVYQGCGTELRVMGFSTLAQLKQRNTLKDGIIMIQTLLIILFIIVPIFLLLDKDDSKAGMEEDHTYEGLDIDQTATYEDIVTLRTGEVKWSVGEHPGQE

[2] = target: T1, CD79b on Ramos cells and on endogenous …; assay: cell-based or functional assay; remark: listed apart in the source
[3] = target: T1, CD79b on Ramos cells and on endogenous …; assay: cell-based or functional assay; remark: listed apart in the source
[4] = target: T1, CD79b on Ramos cells and on endogenous …; assay: cell-based or functional assay; remark: listed apart in the source
[5] = target: T1, CD79b on Ramos cells and on endogenous …; assay: cell-based or functional assay; remark: listed apart in the source
[6] = target: T1, CD79b on Ramos cells and on endogenous …; assay: cell-based or functional assay; remark: listed apart in the source
[7] = target: T2, recombinant human CLEC5A, His Tag (ACROBiosystems, Cat #: NC1-H52H4) (human, UniProt Q9NY25 28-188); assay: BLI, antibody 10 ug/ml captured on anti-human IgG Fc probe, analyte hCLEC5a; table row hCLEC5a 1.56 nM; all four rows print the same value
T2 construct: Analyte of the BLI assay; Its catalogue number differs from that of the ELISA antigen; also called human CLEC5A (BLI analyte)
T2 sequence: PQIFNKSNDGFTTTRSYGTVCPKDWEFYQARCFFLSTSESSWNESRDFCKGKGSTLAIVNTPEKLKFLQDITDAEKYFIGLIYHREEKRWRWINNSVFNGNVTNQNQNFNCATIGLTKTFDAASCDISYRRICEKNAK

[8] = target: T2, recombinant human CLEC5A, His Tag …; assay: BLI, antibody 10 ug/ml captured on anti-human IgG Fc probe, analyte hCLEC5a; table row hCLEC5a 3.12 nM; all four rows print the same value
[9] = target: T3, Human CLEC5A His Tag protein (ACROBiosystems, Cat #: CLA-H5243) (human, UniProt Q9NY25 28-188, limits assumed); assay: ELISA, plate coated with human CLEC5A
T3 construct: Bought protein with a His tag; also called recombinant human CLEC5A protein
T3 sequence: T2 sequence

[10] = target: T4, Human C-type lectin domain family 5 member A (CLEC5A), endogenous on human monocytes and M0 macrophages (human, UniProt Q9NY25 1-188); assay: flow cytometry on human M0 macrophages, anti-human IgG PE
T4 construct: Endogenous CLEC5A on primary human monocytes and monocyte-derived M0 macrophages; also called MDL-1; M0 macrophages (CLEC5A+) cells
T4 sequence: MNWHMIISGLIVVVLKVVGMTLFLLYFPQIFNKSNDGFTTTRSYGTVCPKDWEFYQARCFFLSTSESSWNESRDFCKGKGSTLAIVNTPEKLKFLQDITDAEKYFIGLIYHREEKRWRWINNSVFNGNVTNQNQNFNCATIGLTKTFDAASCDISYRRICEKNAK

[11] = target: T2, recombinant human CLEC5A, His Tag …; assay: BLI, antibody 10 ug/ml captured on anti-human IgG Fc probe, analyte hCLEC5a; table row hCLEC5a 6.25 nM; all four rows print the same value
[12] = target: T2, recombinant human CLEC5A, His Tag …; assay: BLI, antibody 10 ug/ml captured on anti-human IgG Fc probe, analyte hCLEC5a; table row hCLEC5a 0.78 nM; all four rows print the same value
[13] = target: T5, mouse CLEC5A (R&D Systems, Cat #: 8438-CL-050) (mouse, UniProt Q9R007 26-190, limits assumed); assay: ELISA, plate coated with mouse CLEC5A
T5 construct: Bought protein; also called recombinant mouse CLEC5A protein
T5 sequence: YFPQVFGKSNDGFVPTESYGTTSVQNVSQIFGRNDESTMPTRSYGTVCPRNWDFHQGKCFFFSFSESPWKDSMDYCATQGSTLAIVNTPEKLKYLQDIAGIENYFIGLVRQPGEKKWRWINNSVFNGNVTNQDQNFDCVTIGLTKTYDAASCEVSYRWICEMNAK

B1: CD79b/5C7 (1+1 B) Fc-optimized (bispecific antibody, human IgG1, kappa)
heavy 1: EQQLVETGGGLIQPGGSLRLSCAASGFTINIDYWISWVRQAPGKGLEWIGIIDPGDGTTYFAIWVSGRFTISFDNSKNTVYLQMNSLRAEDTAVYFCVREFSASAYQYDLWGPGTLVTVSSASTKGPSVFPLAPSSKSTSGGTAALGCLVKDYFPEPVTVSWNSGALTSGVHTFPAVLQSSGLYSLSSVVTVPSSSLGTQTYICNVNHKPSNTKVDKKVEPKSCDKTHTCPPCPAPELLAGPSVFLFPPKPKDTLMISRTPEVTCVVVDVSHEDPEVKFNWYVDGVEVHNAKTKPREEQYNSTYRVVSVLTVLHQDWLNGKEYKCKVSNKALPLPEEKTISKAKGQPREPQVYTLPPSRDELTKNQVSLSCAVKGFYPSDIAVEWESNGQPENNYKTTPPVLDSDGSFFLVSKLTVDKSRWQQGNVFSCSVMHEALHNHYTQKSLSLSPGK
heavy 2: DIQMTQSPSSLSASVGDRVTITCQASESVDRNNRLAWFQQKPGKPPKLLIYTTSTLASGVPSRFSGSGSGTDFTLTISSLQPEDVATYYCAGYRGAHTDGDAFGGGTKVEIKGGGGSGGGGSGGGGSGGGGSEQQLVESGGGLVKPGGSLRLSCAASGFSFSRSSYMCWVRQAPGKGLEWIGCLSVGDGHTYYASWAKGRFTISKDSAKNSVYLQMNSLRAEDTAVYFCARAPSYSGDGGHGYDLWGPGTLVTVSSDKTHTCPPCPAPELLAGPSVFLFPPKPKDTLMISRTPEVTCVVVDVSHEDPEVKFNWYVDGVEVHNAKTKPREEQYNSTYRVVSVLTVLHQDWLNGKEYKCKVSNKALPLPEEKTISKAKGQPREPQVYTLPPSRDELTKNQVSLWCLVKGFYPSDIAVEWESNGQPENNYKTTPPVLDSDGSFFLYSKLTVDKSRWQQGNVFSCSVMHEALHNHYTQKSLSLSPGK
light: ELVMTQSPATLSVSPGERATLSCRASEDIENYLAWYQQKPGQPPRLLIYRASTLSSGVPARFSGSGSGTEFTLTISSLQSEDFAVYYCQQGYRNSNVDNPFGGGTKVEIKRTVAAPSVFIFPPSDEQLKSGTASVVCLLNNFYPREAKVQWKVDNALQSGNSQESVTEQDSKDSTYSLSSTLTLSKADYEKHKVYACEVTHQGLSSPVTKSFNRGEC
IC50 (nM), Ramos cell killing by PBMCs (test 3), Donor 281 [1]: 0.0123 nM | IC50 (nM), Ramos cell killing by PBMCs (test 3), Donor 367 [1]: 0.841 nM | IC50 (nM), Ramos cell killing by M0 macrophages, Donor 431 [2]: 0.003 nM | IC50 (nM), Ramos cell killing by M1 macrophages, Donor 431 [3]: 0.006 nM | IC50 (nM), killing of endogenous B cells by PBMCs, Donor 367 [4]: 0.0253 nM | IC50 (nM), killing of endogenous B cells by PBMCs, Donor 431 [4]: 0.0253 nM | IC50 (nM), Ramos cell killing by M2 macrophages, Donor 431 [5]: 0.001 nM | IC50 (nM), Ramos cell killing by PBMCs (test 2), Donor 431 [6]: 0.0253 nM

B2: CD79b/5C7 (2+2 B) Fc-silenced (bispecific antibody, human IgG1, kappa, L234A L235A)
heavy: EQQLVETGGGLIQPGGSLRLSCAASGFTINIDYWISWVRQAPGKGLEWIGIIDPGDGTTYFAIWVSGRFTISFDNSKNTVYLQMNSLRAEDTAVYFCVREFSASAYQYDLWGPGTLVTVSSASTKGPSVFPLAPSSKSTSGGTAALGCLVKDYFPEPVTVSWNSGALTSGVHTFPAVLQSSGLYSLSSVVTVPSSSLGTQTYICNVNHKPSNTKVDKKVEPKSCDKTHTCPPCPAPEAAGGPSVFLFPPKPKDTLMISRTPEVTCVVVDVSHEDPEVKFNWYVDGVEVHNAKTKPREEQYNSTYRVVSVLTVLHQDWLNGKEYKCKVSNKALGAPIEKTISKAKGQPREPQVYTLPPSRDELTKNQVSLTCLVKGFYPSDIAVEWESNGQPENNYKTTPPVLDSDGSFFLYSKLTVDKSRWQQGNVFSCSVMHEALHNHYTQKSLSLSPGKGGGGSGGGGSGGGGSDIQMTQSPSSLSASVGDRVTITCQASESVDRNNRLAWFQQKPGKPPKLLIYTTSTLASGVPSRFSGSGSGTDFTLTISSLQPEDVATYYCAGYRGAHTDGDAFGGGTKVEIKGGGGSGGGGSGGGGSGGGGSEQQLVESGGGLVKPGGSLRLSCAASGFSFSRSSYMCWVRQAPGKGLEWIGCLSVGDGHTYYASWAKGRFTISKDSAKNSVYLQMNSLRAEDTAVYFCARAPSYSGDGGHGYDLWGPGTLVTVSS
light: B1 light
IC50 (nM), Ramos cell killing by PBMCs (test 3), Donor 022 [1]: 0.131 nM | IC50 (nM), Ramos cell killing by PBMCs (test 3), Donor 281 [1]: 0.043 nM | IC50 (nM), Ramos cell killing by PBMCs (test 3), Donor 367 [1]: 0.0643 nM | IC50 (nM), Ramos cell killing by M0 macrophages, Donor 022 [2]: 0.002 nM | IC50 (nM), Ramos cell killing by M0 macrophages, Donor 100 [2]: 0.0008 nM | IC50 (nM), Ramos cell killing by M0 macrophages, Donor 159 [2]: 0.001 nM | IC50 (nM), Ramos cell killing by M0 macrophages, Donor 161 [2]: 0.0008 nM | IC50 (nM), Ramos cell killing by M0 macrophages, Donor 233 [2]: 0.002 nM | IC50 (nM), Ramos cell killing by M1 macrophages, Donor 100 [3]: 0.0007 nM | IC50 (nM), Ramos cell killing by M1 macrophages, Donor 431 [3]: 0.0014 nM | IC50 (nM), killing of endogenous B cells by PBMCs, Donor 023 [4]: 0.0231 nM | IC50 (nM), killing of endogenous B cells by PBMCs, Donor 367 [4]: 0.00617 nM | IC50 (nM), killing of endogenous B cells by PBMCs, Donor 431 [4]: 0.00617 nM | IC50 (nM), Ramos cell killing by M2 macrophages, Donor 022 [5]: 0.001 nM | IC50 (nM), Ramos cell killing by M2 macrophages, Donor 100 [5]: 0.0004 nM | IC50 (nM), Ramos cell killing by M2 macrophages, Donor 233 [5]: 0.002 nM | IC50 (nM), Ramos cell killing by M2 macrophages, Donor 431 [5]: 0.0009 nM | IC50 (nM), Ramos cell killing by PBMCs (test 2), Donor 431 [6]: 0.0062 nM

B3: 3A7, chimeric rabbit/human IgG1 anti-CLEC5A antibody (Fc-silenced) (antibody, V domains shown)
VH: QSLEESGGDLVKPGASLTLTCTASGFSFSGMYWICWVRQAPGKGLEWIACIYTGSSTTGYASWAKGRFTISKTSSTTVTLQMTSLTAADTATHFCASPYGDSSHYRGLNLWGPGTLVTVSS
VL: AVVMTQTPASVEAAVGGTVTINCQASQRINNYLSWFQQKPGQPPKLLIYGAATLASGVPSRFKGSGSGTEYTLTISDLEPADAATYYCQCTYGIPSSNYGFGGGTEVVVK
notes: also called ch3A7
Kd [7]: 0.0631 nM | koff [7]: 8.96e-05 s⁻¹ | kon [7]: 1.42e+06 M⁻¹ s⁻¹ | Kd [8]: 0.0631 nM | koff [8]: 8.96e-05 s⁻¹ | kon [8]: 1.42e+06 M⁻¹ s⁻¹ | EC50 [9]: 0.71 nM | EC50 [10]: 0.96 nM | Kd [11]: 0.0631 nM | koff [11]: 8.96e-05 s⁻¹ | kon [11]: 1.42e+06 M⁻¹ s⁻¹ | Kd [12]: 0.0631 nM | koff [12]: 8.96e-05 s⁻¹ | kon [12]: 1.42e+06 M⁻¹ s⁻¹

B4: 6G9, chimeric rabbit/human IgG1 anti-CLEC5A antibody (Fc-silenced) (antibody, V domains shown)
VH: QSLEESGGDLVKPGASLTLTCTASGFSFTSNKYMCWVRQAPGKGPEWIACIYVGDGNTYYASWAKGRFTISKTSSTTVTLQMTSLTVADTATYFCARGGDYSIGGGGFASNLWGPGTLVTVSS
VL: AFELTQTPSSVEAAVGGTVTINCQASESISNFLAWYRQKPGQPPKLLIYRASTLASGVSSRFKGSGSGTEFTLTISDLEPADGASYYCQSYYGTSSTGHNVFGGGTEVVVK
notes: also called ch6G9
EC50 [10]: 6.84 nM

B5: 14A2, chimeric rabbit/human IgG1 anti-CLEC5A antibody (Fc-silenced) (antibody, V domains shown)
VH: QSLEESGGGLVKPEGSLTLTCKASGFTLSSYYYMCWVRQAPGKGLEWIACIYAGSSGTTVYASWAKGRFTISKTSSTTVTLQMTSLTAADTATYLCARKLGDVGYGHTTYFNLWGPGTLVTVSS
VL: ALVMTQTPSSVSAAVGGTVTIKCQASQNIYSTLAWYQQKPGQPPKLLMFDASDLASGVPSRFKGSGSGTEYTLTISDLEPADAATYFCQTYYDSGSDDLNAFGGGTEVVVK
notes: also called ch14A2
EC50 [13]: 0.184 nM | EC50 [10]: 3.99 nM

B6: 7G10, chimeric rabbit/human IgG1 anti-CLEC5A antibody (Fc-silenced) (antibody, V domains shown)
VH: QQQLEESGGGLVKPGGTLTLTCKASGFSFSSGYDMCWVRQAPGKGLEWIACIYGGRSDNVYYARWAKGRFTISKTSSTTVTLQMTSLTAADTATYFCARDYLYRGYIGGGYGRSNLWGPGTLVTVSS
VL: DVVMTQTPASVSAAVGGTVTINCRASEDIENCLAWYQQKPGQPPKLLIYQASKLPSGVPSRFSGSGSGTEYTLTISDLEPDDGATYYCQNPDYMRNTDNLFGGGTEVVVK
notes: also called ch7G10
EC50 [9]: 0.16 nM | EC50 [10]: 2.06 nM

B7: 13E6, chimeric rabbit/human IgG1 anti-CLEC5A antibody (Fc-silenced) (antibody, V domains shown)
VH: QSLEESGGDLVKPGGTLTLTCTASGFSFSSSYWLCWVRQAPGKGLEWIACIYGGSSRGTYYASWAKGRFTISKTSSTTVTLQMTSLTAADTATYFCASHTYTYPRFSPYFNLWGPGTLVSVSS
VL: AFEMTQTPASVSPAVGGTVSINCQASEDIESSLAWYQQKPGQPPKLLIYDASDLESGVPSRFKGSGSGTEYTLTISGVQPADAATYFCQSAYYTGSADNTFGGGTEVVVK
notes: also called ch13E6
EC50 [9]: 0.61 nM | EC50 [10]: 2.57 nM

B8: 9E11, chimeric rabbit/human IgG1 anti-CLEC5A antibody (Fc-silenced) (antibody, V domains shown)
VH: QSLEESGGGLVQPEGSLTLTCTASGFDLNNYYYMCWVRQAPGKGLEWIACTHAGSSSSSYYARWAKGRFTISKTSSTTVTLQMTSLTAADTATYFCARHDRDYDDMDLWGPGTLVTVSS
VL: NIVMTQTTSPVSAVVGGTITINCQASQSIEYGYLSWYQQKPGQPPKLLIFYASKLASGVPSRFSGSGSGTQFTLTISGVQPDDAATYFCLYGYFDDYSGAAFGGGTEVVVK
notes: also called ch9E11
EC50 [10]: 1.59 nM

B9: DX244, reference anti-CLEC5A antibody (antibody, human IgG1, V domains shown)
VH: QIQLVQSGPELKKPGETVKISCKASGYTFTIYAMNWVKQAPGKGLEWMGWINTDTGEPTYADDFKGRFAFSLETSASTAYLQINNLKNEDMATYFCARSSEVFYDYRFDYWGQGTALTVSS
VL: DIQMTQSPSSLSASLGERVSLTCRASQDIGSSLNWLQQEPDGTIKRLIYATSNLDSGVPKRFSGSRSGSDYSLTISSLESEDFVHYYCLQYASSPFTFGSGTKLEIKR
notes: also called benchmark DX244
EC50 [10]: 2.8 nM
